Measured values published in patent US20200247889A1 (published 2020).

T1: mouse TREM1 (mouse, UniProt Q9JKE2 21-230)
T1 chain: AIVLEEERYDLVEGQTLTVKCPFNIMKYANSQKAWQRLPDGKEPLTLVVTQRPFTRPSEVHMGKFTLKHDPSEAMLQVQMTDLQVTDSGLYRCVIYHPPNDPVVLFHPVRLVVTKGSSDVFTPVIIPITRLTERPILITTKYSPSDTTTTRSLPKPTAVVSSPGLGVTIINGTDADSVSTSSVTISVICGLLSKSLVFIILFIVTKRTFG

T2: cynomolgus TREM1 (cynomolgus, UniProt A0A2K5VHG8 21-233)
T2 chain: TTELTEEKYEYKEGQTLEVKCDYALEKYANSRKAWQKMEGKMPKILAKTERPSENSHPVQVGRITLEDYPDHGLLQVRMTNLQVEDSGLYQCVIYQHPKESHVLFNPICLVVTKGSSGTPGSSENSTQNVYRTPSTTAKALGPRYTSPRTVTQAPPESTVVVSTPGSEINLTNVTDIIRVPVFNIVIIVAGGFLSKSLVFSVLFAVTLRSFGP


How the values were obtained:
mouse TREM1 [1] = target: T1, mouse TREM1; experiment: cell binding
mouse TREM1 [2] = target: T1, mouse TREM1; experiment: SPR (Biacore); avid
mouse TREM1 [3] = target: T1, mouse TREM1; experiment: cell binding; BALB/c splenocyte neutrophils
9067s = experiment: SPR
cynomolgus TREM1 [4] = target: T2, cynomolgus TREM1; experiment: cell binding
cynomolgus TREM1 [5] = target: T2, cynomolgus TREM1; experiment: flow cytometry cell binding

EC50 (mouse TREM1 [1]) [nM] | Kd (mouse TREM1 [2]) [nM] | EC50 (mouse TREM1 [3]) [nM] | Kd (9067s) [nM] | EC50 (cynomolgus TREM1 [4]) [nM] | EC50 (cynomolgus TREM1 [5]) [nM] | Binder
1.85 | 0.09 | 0.98 | – | – | – | Pi-9067L (antibody, V domains shown) VH: EVQLVESGGGLVQPGGSLRLSCAASGFDIYSYSIHWVRQAPGKGLEWVAYIYPSYGYTSYADSVKGRFTISADTSKNTAYLQMNSLRAEDTAVYYCARGAVAALDYWGQGTLVTVSS VL: DIQMTQSPSSLSASVGDRVTITCRASQSVSSAVAWYQQKPGKAPKLLIYSASSLYSGVPSRFSGSRSGTDFTLTISSLQPEDFATYYCQQYGVSGYSLITFGQGTKVEIKR
2.9 | 0.15 | – | – | – | – | afucosylated Pi-9067L (antibody, V domains shown, afucosylated Fc glycan) VH: EVQLVESGGGLVQPGGSLRLSCAASGFDIYSYSIHWVRQAPGKGLEWVAYIYPSYGYTSYADSVKGRFTISADTSKNTAYLQMNSLRAEDTAVYYCARGAVAALDYWGQGTLVTVSS VL: DIQMTQSPSSLSASVGDRVTITCRASQSVSSAVAWYQQKPGKAPKLLIYSASSLYSGVPSRFSGSRSGTDFTLTISSLQPEDFATYYCQQYGVSGYSLITFGQGTKVEIKR
– | – | – | 0.87 | – | – | Protein binding (receptor) AIVLEEERYDLVEGQTLTVKCPFNIMKYANSQKAWQRLPDGKEPLTLVVTQRPFTRPSEVHMGKFTLKHDPSEAMLQVQMTDLQVTDSGLYRCVIYHPPNDPVVLFHPVRLVVTKGSSDVFTPVIIPITRLTERPILITTKYSPSDTTTTRSLPKPTAVVSSPGLGVTIINGTDADSVSTSSVTISVICGLLSKSLVFIILFIVTKRTFG
2.85 | 0.15 | 6.83 | – | – | – | Pi-9772 (antibody, V domains shown) VH: EVQLVESGGGLVQPGGSLRLSCAASGFDLSYSSMHWVRQAPGKGLEWVAYISPYSGYTSYADSVKGRFTISADTSKNTAYLQMNSLRAEDTAVYYCARHGSWSYGFSSGFDYWGQGTLVTVSS VL: DIQMTQSPSSLSASVGDRVTITCRASQSVSSAVAWYQQKPGKAPKLLIYSASSLYSGVPSRFSGSRSGTDFTLTISSLQPEDFATYYCQQYAYYYPITFGQGTKVEIKR
6.35 | 0.71 | – | – | – | – | afucosylated Pi-9772 (antibody, V domains shown, afucosylated Fc glycan) VH: EVQLVESGGGLVQPGGSLRLSCAASGFDLSYSSMHWVRQAPGKGLEWVAYISPYSGYTSYADSVKGRFTISADTSKNTAYLQMNSLRAEDTAVYYCARHGSWSYGFSSGFDYWGQGTLVTVSS VL: DIQMTQSPSSLSASVGDRVTITCRASQSVSSAVAWYQQKPGKAPKLLIYSASSLYSGVPSRFSGSRSGTDFTLTISSLQPEDFATYYCQQYAYYYPITFGQGTKVEIKR
– | – | – | – | 0.13 | 0.13 | mAb0170 (antibody, V domains shown) VH: EVQLVESGGGLVQPGGSLKLSCAASGFTFSTYAMHWVRQASGKGLEWVGRIRTKSSNYATYYAASVKGRFTISRDDSKNTAYLQMNSLKTEDTAVYYCTRDMGIRRQFAYWGQGTLVTVSS VL: DIVLTQSPDSLAVSLGERATINCRASESVDTFDYSFLHWYQQKPGQPPKLLIYRASNLESGVPDRFSGSGSGTDFTLTISSLQAEDVAVYYCQQSNEDPYTFGQGTKLEIK
2.32 | 0.11 | – | – | – | – | afucosylated Pi-4928 (antibody, V domains shown, afucosylated Fc glycan) VH: QVQLKESGPGLVQPSQTLSLTCTVSGFSITSSNVYWFRQPPGKGLEWMGNIWGDGSTDYNSSLKSRLTLSRDTSKNQVFLKINSLQSEDTATYFCTRSWEYYFDHWGQGVVVTVSS VL: DIVLTQSPALAVSPGQRATLSCRASQSVTLSNVNLMNWYQQKPGQQPKLLIYHASNLASGIPTRFSGSGSGTDFTLTIDPVQADDIAAYYCQQSGESPRTFGGGTKVELKR
1.41 | 0.11 | 1.36 | – | – | – | Pi-4928 (antibody, V domains shown) VH: QVQLKESGPGLVQPSQTLSLTCTVSGFSITSSNVYWFRQPPGKGLEWMGNIWGDGSTDYNSSLKSRLTLSRDTSKNQVFLKINSLQSEDTATYFCTRSWEYYFDHWGQGVVVTVSS VL: DIVLTQSPALAVSPGQRATLSCRASQSVTLSNVNLMNWYQQKPGQQPKLLIYHASNLASGIPTRFSGSGSGTDFTLTIDPVQADDIAAYYCQQSGESPRTFGGGTKVELKR
